PMC9210550
Residue numbers refer to the chain shown, from its start. Where two headings read alike, the source gives them in different places.

How the values were obtained:
[1] = target: T1, ZCCHC8 core (NEXT subunit);RBM7 core FAFA;MTR4 (human;human;human, UniProt Q6NZY4;Q9Y580;P42285 1-415+508-707;6-86;1-1042, internal_change|F13A;F52A|); assay: EMSA
[2] = target: T2, ZCCHC8 core (NEXT subunit);RBM7 core (NEXT subunit);MTR4 (human;human;human, UniProt Q6NZY4;Q9Y580;P42285 1-415+508-707;6-86;1-1042, internal_change||); assay: EMSA
[3] = target: ZCCHC8 core delta HD;RBM7 core (NEXT subunit);MTR4 (human;human;human, UniProt Q6NZY4;Q9Y580;P42285 176-415+508-707;6-86;1-1042, internal_change||); assay: EMSA
[4] = target: T2, ZCCHC8 core (NEXT subunit);RBM7 core …; assay: EMSA; remark: listed apart in the source
[5] = target: T1, ZCCHC8 core (NEXT subunit);RBM7 core …; assay: EMSA; remark: listed apart in the source
[6] = target: ZCCHC8 core delta ZK;RBM7 core (NEXT subunit);MTR4 (human;human;human, UniProt Q6NZY4;Q9Y580;P42285 1-226+245-415+508-707;6-86;1-1042, internal_change||); assay: EMSA
[7] = target: T2, ZCCHC8 core (NEXT subunit);RBM7 core …; assay: cryo-EM
[8] = target: T2, ZCCHC8 core (NEXT subunit);RBM7 core …; assay: cryo-EM; remark: listed apart in the source

B1: 3' A5U5A10-tailed RNA duplex (dsRNA)
RNA 1: AGUGCGCUGUAUCUUCAAGGCCACU
RNA 2: AGUGGCCUUGAAGAUACAGCGCACUAAAAAUUUUUAAAAAAAAAA
B1 gave a binding signal [1] of roughly 3 fold weaker than NEXT, a Kd [2] of 42 nM and a binding signal [3] of roughly 2 fold weaker than NEXT.

B2: 3' A20-tailed RNA duplex (dsRNA)
RNA 1: AGUGCGCUGUAUCUUCAAGGCCACU
RNA 2: B1 RNA 2 with U31A, U32A, U33A, U34A, U35A
With B2 the binding signal [4] was ~10 fold weaker than NEXT on A5U5A10 tail, the binding signal [5] was ~2 fold weaker than NEXT on A20 tail and the binding signal [6] was ~4 fold tighter than NEXT on A20 tail.

ACAUGAGGAUCACCCAUGUAAUCUCUUUCAAAAAAUACAAAAAAAA (structured_RNA, 2'-pyrene modified U at position 36) [cryo-EM substrate 1]: binds [7].

B3: cryo-EM substrate 2 (dsRNA)
RNA 1: GGCGCGCGCCAAAAAUUUUUAAAAAAAAAA
RNA 2: B3 RNA 1
B3: binds [8].
